US20060234285A1 (Human Genome Sciences, published 2006)

Assays:
Test in all cases: flow cytometry on transiently transfected cells
[1] = target: T1, DR4, on transiently transfected cells (UniProt O00220 24-468, limits assumed)
T1 construct: whole, on cells
T1 sequence (looked up): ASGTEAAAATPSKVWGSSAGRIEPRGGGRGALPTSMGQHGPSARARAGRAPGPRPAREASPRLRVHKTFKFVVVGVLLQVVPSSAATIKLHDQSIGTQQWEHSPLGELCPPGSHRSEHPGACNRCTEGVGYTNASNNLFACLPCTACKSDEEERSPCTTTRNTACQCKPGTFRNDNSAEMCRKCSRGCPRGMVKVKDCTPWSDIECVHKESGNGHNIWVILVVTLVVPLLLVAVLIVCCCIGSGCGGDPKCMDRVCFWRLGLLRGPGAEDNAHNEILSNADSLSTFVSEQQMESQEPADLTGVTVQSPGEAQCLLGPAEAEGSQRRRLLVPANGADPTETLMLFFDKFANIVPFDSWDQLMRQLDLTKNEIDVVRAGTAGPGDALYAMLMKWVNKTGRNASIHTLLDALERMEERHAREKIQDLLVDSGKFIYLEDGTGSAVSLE
Method: (§1) One million cells, in 0.1 ml of FACS buffer (PBS, 0.1% BSA, 0.1% NaN₃), were incubated with 0.1-1 microgram of protein or antibody at RT for 15 min. The cells were washed with 3 ml of FACS buffer, reacted with biotinylated primary antibody, and stained with PE-conjugated secondary antibody at RT for 15 min. Cells were then washed again, resuspended in 0.5 microgram/ml of propidium iodide, and live cells were gated and analyzed on a FACScan using the CellQuest software (BD Biosciences).

[2] = target: T2, DR5, on transiently transfected cells (UniProt O14763 56-440, limits assumed)
T2 construct: whole, on cells
Method: as §1

[3] = target: T3, HveA, on transiently transfected cells (UniProt Q92956 39-283, limits assumed)
T3 construct: whole, on cells
T3 sequence (looked up): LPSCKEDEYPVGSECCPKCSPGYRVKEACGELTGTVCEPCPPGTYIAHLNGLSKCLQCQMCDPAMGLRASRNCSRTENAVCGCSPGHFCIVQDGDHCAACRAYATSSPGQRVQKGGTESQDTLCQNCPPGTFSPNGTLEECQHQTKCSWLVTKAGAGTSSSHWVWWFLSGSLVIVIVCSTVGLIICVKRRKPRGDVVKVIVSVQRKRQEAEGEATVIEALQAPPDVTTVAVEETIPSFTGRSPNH
Method: as §1

[4] = target: T4, 4-1BB, on transiently transfected cells (UniProt Q07011 24-255)
T4 construct: whole, on cells
T4 sequence (Q07011 24-255): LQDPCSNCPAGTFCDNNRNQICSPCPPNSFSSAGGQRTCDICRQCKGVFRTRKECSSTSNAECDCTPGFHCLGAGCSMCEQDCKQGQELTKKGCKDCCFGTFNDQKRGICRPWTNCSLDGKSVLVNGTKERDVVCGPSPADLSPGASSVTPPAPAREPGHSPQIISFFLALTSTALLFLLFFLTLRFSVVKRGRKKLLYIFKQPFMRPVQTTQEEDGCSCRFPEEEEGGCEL
Method: as §1

[5] = target: T5, CD30, on transiently transfected cells (UniProt P28908 19-595, limits assumed)
T5 construct: whole, on cells
T5 sequence (looked up): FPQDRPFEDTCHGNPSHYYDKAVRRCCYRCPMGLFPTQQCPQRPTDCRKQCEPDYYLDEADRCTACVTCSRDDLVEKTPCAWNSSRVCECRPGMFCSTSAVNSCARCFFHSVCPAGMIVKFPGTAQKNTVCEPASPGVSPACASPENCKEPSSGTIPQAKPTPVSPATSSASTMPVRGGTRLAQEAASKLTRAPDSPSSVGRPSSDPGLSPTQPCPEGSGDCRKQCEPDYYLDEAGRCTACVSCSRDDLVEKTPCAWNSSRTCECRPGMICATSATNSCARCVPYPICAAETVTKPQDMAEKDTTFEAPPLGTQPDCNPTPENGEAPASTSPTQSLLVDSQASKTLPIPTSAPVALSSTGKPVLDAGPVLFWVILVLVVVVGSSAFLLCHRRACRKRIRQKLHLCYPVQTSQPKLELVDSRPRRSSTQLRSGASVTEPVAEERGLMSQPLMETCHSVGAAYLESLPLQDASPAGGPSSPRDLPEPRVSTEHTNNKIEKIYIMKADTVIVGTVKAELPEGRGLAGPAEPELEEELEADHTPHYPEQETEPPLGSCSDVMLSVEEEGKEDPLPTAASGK
Method: as §1

[6] = target: T6, TNFR2, on transiently transfected cells (UniProt P20333 23-461, limits assumed)
T6 construct: whole, on cells
T6 sequence (looked up): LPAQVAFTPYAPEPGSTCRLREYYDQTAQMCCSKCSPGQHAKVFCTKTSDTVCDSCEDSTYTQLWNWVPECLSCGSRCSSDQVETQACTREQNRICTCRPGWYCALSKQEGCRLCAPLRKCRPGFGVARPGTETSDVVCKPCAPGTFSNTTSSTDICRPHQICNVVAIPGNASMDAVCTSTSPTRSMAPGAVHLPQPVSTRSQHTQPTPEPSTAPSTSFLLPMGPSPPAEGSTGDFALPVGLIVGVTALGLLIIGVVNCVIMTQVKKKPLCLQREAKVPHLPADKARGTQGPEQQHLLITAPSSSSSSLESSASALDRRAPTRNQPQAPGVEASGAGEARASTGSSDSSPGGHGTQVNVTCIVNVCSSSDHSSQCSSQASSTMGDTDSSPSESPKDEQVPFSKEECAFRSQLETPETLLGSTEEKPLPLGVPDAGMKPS
Method: as §1

Measured: binding result

B1: FLAG-tagged soluble form of TNF-gamma-beta (aa 72-251) (ligand, human, UniProt O95150 72-251, looked up, not shown: small tags and cut ends)
chain: LKGQEFAPSHQQVYAPLRADGDKPRAHLTVVRQTPTQHFKNQFPALHWEHELGLAFTKNRMNYTNKFLLIPESGDYFIYSQVTFRGMTSECSEIRQAGRPNKPDSITVVITKVTDSYPEPTQLLMGTKSVCEVGSNWFQPIYLGAMFSLQEGDKLMVNVSDISLVDYTKEDKTFFGAFLL
notes: also called FLAG-TL1β; FLAG-TNF-gamma-beta
no binding: all assays above
